According to patent publication US20240002499A1 (UNIVERSITA DEGLI STUDI DI MILANO, published 2024):
One block for each binder: values may come before it.

Legend:
[1] = biological target: T1, human CLIC1 protein located on the plasma membrane (tmCLIC1) (human, UniProt O00299 2-241); assay: cell-based or functional assay
[2] = biological target: CLIC1 protein of microglial cells (BV-2), transmembrane form after stimulation (mouse, UniProt Q9Z1Q5 2-241); assay: cell-based or functional assay
QVELF sequence = biological target: T2, QVELF sequence (human); assay: PEPperMAP linear peptide microarray
T2 peptide: QVELF
Protocol: (§1) PEPperMAP epitope Mapping® of the tmCLIC1omab antibody was conducted against the peptide […] (amino acids 3-24 of the CLIC1 protein) translated to linear peptides consisting of 5, 10 and 15 amino acids with peptide-peptide overlaps of 4, 9 and 14 amino acids for high-resolution epitope data. The resulting CLIC1 peptide microarrays were incubated with the antibody samples at concentrations of 1 μg/ml, 10 μg/ml, 100 μg/ml and 250 μg/ml in incubation buffer, followed by staining with secondary and control antibodies and reading with a LI-COR Odyssey Imaging System. The intensity of the points and peptide annotation were quantified with the PepSlide® Analyzer.
(§2) Conversely, incubation of a second copy of the microarray of CLIC1 peptides with the tmCLIC1omab monoclonal antibody gave an antibody response with the epitopes formed by peptides adjacent to the VELF consensus motif (SEQ ID NO:22), with all peptide lengths having low or moderate signal-to-noise ratios. Additional very weak interactions of the antibody with the HA control peptides were observed, perhaps because of a cross-reaction or a less specific antibody bond. With the peptides consisting of 10 and […], longer […] (10 aa) (SEQ ID NO:23) and […] (15 aa) (SEQ ID NO:24) consensus motifs were observed, the underlined letters of which form part of linker […] (SEQ ID NO:25) specific to the microarray.

QVELFV sequence = biological target: T3, QVELFV sequence (human); assay: PEPperMAP linear peptide microarray
T3 peptide: QVELFV
Protocol: as §1, §2

[3] = biological target: T1, human CLIC1 protein located on the …; assay: not specified (same experimental models as tmCLIC1omab)

ROS production over time in human glioblastoma cells (fluorescence) [1]: ~5 fold
membrane current, patch-clamp in whole-cell configuration on BV2 microglial cells after β-amyloid [2]: ~4 fold
binding result (QVELF sequence): binds
binding result (QVELFV sequence): binds
B1: tmCLIC1omab (antibody, IgG1, V domains shown)
VH: EVMLVESGGGLVKPGGSLKLSCAASGFAFSNYAMSWIRQIPEKRLEWVATISTGGSSTFYPDSVKGRFTISRDNAKNTLYLQMSSLRSEDTAMYYCTRHAYEAWFAYWGQGTLVTVSA
VL: QIVLTQSPALMSASPGEKVTMTCSASSSVSYMYWYQQRPRSSPKPWIYLTSTLASGVPTRFSGSGSGTSYSLTISSMEAEDAATYYCQQWNSHPLTFGSGTKLEIK
notes: IgG1 class monoclonal antibody from mouse hybridoma; also called tmCLIComab; anti-tmCLIC1 monoclonal antibody

binding result [3]: binds
B2: class IgG2b antibody containing the heavy chain variable region SEQ ID NO:15 and the light chain variable region SEQ ID NO:16 (antibody, V domains shown)
VH: EVKLVESGGGLVKPGGSLKLSCAASGFTFSGYVMSWVRQTPDKRLEWVASISSGGSSYYSDRVKGRLTISRDNARNILFLQMSSLRSEDSAMYYCANGYNYAMDYWGQGTSVTVSS
VL: DIVMTQSHKFMSISVGDRVSITCKASQDVGTAVAWYQQKPGQSPQLLIYWASTWHTGVPDRFTGSGSGTDFTLTITNVQSEDLADYFCQQYKLFPLTFGAGTRLELK
notes: IgG2b
